Experimental data published in publication PMC7055391.

Target: Cqm1 receptor protein (functional form; residues 23–560) (Culex quinquefasciatus)
Test: small-angle neutron scattering (SANS); single proteins in 100% D2O buffer C (25 mM HEPES pH 7.5, 25 mM NaCl), 25°C; Cqm1 3.3 mg/ml, hBinB 3.3 mg/ml; ab initio IFT modelling and fits against crystal structures

## Cqm1 receptor protein (functional form; residues 23–560)
  stoichiometry N: 2
